The values that follow are results of earlier work, collected in article PMC9797105.

For series [1], the target named is TRP channel PBM (Drosophila melanogaster) (UniProt P19334).
The target in the next series is TARP γ-8 PBM (UniProt Q8WXS5).
Chain of UniProt Q8WXS5 (Q8WXS5 whole entry, looked up): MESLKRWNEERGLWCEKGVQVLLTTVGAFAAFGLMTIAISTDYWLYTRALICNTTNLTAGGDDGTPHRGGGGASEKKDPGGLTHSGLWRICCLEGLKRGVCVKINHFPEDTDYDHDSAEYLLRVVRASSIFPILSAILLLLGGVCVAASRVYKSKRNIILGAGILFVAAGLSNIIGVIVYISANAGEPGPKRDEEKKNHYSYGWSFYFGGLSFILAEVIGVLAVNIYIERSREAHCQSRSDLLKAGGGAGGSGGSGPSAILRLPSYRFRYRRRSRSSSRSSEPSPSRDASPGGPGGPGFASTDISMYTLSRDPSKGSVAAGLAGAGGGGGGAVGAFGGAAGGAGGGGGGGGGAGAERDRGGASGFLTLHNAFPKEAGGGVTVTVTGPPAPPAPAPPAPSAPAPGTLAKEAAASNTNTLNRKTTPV

One may read the Kd as the equilibrium constant for the complex coming apart. For INAD PDZ3 (from UniProt Q24008), the Kd in series [1] is 0.13 µM.

On to PSD-95 PDZ2 (from UniProt P78352), for which, in the series with TARP γ-8 PBM, the Kd was 40 µM.
